Measured values from article PMC3202870.

Biological target: PA63, the cell-associated furin-cleavage product of Bacillus anthracis protective antigen (PA83) (Bacillus anthracis)
Assay: SDS-PAGE and phosphoimaging of 125I-PA recovered from cells

PA63, the cell-associated furin-cleavage product of Bacillus anthracis protective antigen (PA83) (domain or fragment)
stoichiometry N: 7
